Assay results published in US20240352438A1, “MEANS AND METHODS FOR DETOXIFYING OCHRATOXIN A” (DSM Austria GmbH, priority 2021, published 2024).

Columns and labels:
[1] = OTA detoxification activity assay (specific activity, fluorescence reduction ex/em 390/450 nm); type: biochemical; conditions: SEQ ID NO: 1 = 100%
Summary of the method: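 Recombinant enzyme preparation with 200 ng/mL OTA in 100 mM sodium phosphate, at pH 6.0 and pH 7.5, 37° C. Degradation followed as the fall in fluorescence at ex/em 390/450 nm. Specific activity taken from the initial linear slope; one unit degrades 1 μmol OTA per min at a starting OTA of […].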

[2] = Thermostability assay: residual OTA detoxification activity after 10 min incubation at 45-99° C. (T50); type: physicochemical; conditions: 0.1 mg/mL protein in 20 mM Tris-HCl pH 7.5, residual OTA detoxification activity relative to 4° C. reference aliquot
Summary of the method: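 Purified enzyme at 0.1 mg/mL in 20 mM Tris-HCl pH 7.5 was heated 10 min at 45–99 °C, then held at 4 °C. Residual OTA detoxification activity was expressed relative to an aliquot kept at 4 °C throughout; T50 is the temperature range giving 50% activity loss.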

B1: 71 (protein)
chain: MTTRTRILTAFLSLLAANACAADAAPAAPHTVVLRAARMFDGASGKLVDHPQLTIVGNKIVRIAQGDKAEVPAGAEVVDLGDATLLPGFIDAHVHLSGQSSDNWYGDFFDNMMRFPAEQALYGAYYARITLEAGFTSVRDVGSTDWVALGLRNAIDAGKVPGPRMLVSNYAVGSTGGHADQDPIPPHKLPLAGPLQGVCNGPEECRAAVRYQIKYGANVIKFMPSGGVLSLSDPVDAPELSQDEMNAVIGESHAWGRKVAAHAQGDKAAKMAVAAGVDSIEHGSFIEDDTLRAMKAKNVYLVPTISAIAHVEEKIGTFPPVIAEKGRAAAAHLRQTFRHAVQIGVPIALGTDAGVGAHGSNAREFRYMVENGLTPAQALLAGTANAARLLGTFDRVGTLEAGKLADVVAVPGNPIADITVTERPLFVMKDGVVVRRDAVR
modifications: exemplary polypeptide
- Specific OTA detoxification activities in % compared to the enzyme of SEQ ID NO: 1, pH 6.0 [1]: 32%
- Specific OTA detoxification activities in % compared to the enzyme of SEQ ID NO: 1, pH 7.5 [1]: 17%
- T50 (temperature at which 50% of the initial activity was maintained) [2]: 70.7-72.6 °C

B2: 77 (protein)
chain: MTTRTRILTAFLSLLAANACAADAAPAAPHTVVLRAARMFDGASGKLVDHPQLTIVGNKIVRIAQGDKAEVPAGAEVVDLGDATLLPGFIDAHVHLSGQSSDNWYGDFFDNMMRFPAEQALYGAYYARITLEAGFTSVRDVGSTDWVALGLRNAIDAGKVPGPRMLVSNYAVGSTGGHADQDPIPPHKLPLAGPLQGVCNGPEECRAAVRYQIKYGANVIKFMPSGGVLSLSDPVDAPELSQDEMNAVIGESHAWGRKVAAHAHGDKAAKMAVAAGVDSIEHGSFIEDDTLRAMKAKNVYLVPTISGIAHAEEKIGTFPPVIAEKGRAAAAHLRQTFRHAVQIGVPIALGTDAGVGAHGSNAREFRYMVENGLTPAQALLAGTANAARLLGTFDRVGTLEAGKLADVVAVPGNPIADITVTERPLFVMKDGVVVRRDAVR
modifications: exemplary polypeptide
- Specific OTA detoxification activities in % compared to the enzyme of SEQ ID NO: 1, pH 6.0 [1]: 5%
- Specific OTA detoxification activities in % compared to the enzyme of SEQ ID NO: 1, pH 7.5 [1]: 3%
- T50 (temperature at which 50% of the initial activity was maintained) [2]: 65.3-66.9 °C

B3: 50 (protein)
chain: MTTRTRILTAFLSLLAANACAADAAPAAPHTVVLRAARMFDGASGKLVDHPQLTIVGNKIVRIAQGDKAEVPAGAEVVDLGDATLLPGFIDAHVHLSGQSSDNWYGDFFDNMMRFPAEQALYGAYYARITLEAGFTSVRDVGSTDWVALGLRNAIDAGKVPGPRMLVSNYPVGSTGGHADQDPIPPHKLPLAGPLQGVCNGPEECRAAVRYQIKYGANVIKFMPSGGVLSLSDPVDAPELSQDEMNAVIGESHAWGRKVAAHAHGDKAAKMAVAAGVDSIEHGSFIEDDTLRAMKAKNVYLVPTISAIAHVEEKIGTFPPVIAEKGRAAAAHLRQTFRHAVQIGVPIALGTDAGVGAHGSNAREFRYMVENGLTPAQALLAGTANAARLLGTFDRVGTLEAGKLADVVAVPGNPIADITVTERPLFVMKDGVVVRRDAVR
modifications: exemplary polypeptide
- Specific OTA detoxification activities in % compared to the enzyme of SEQ ID NO: 1, pH 6.0 [1]: 81%
- Specific OTA detoxification activities in % compared to the enzyme of SEQ ID NO: 1, pH 7.5 [1]: 257%
- T50 (temperature at which 50% of the initial activity was maintained) [2]: 64 °C

B4: 80 (protein)
chain: MTTRTRILTAFLSLLAANACAADAAPAAPHTVVLRAARMFDGASGKLVDHPQLTIVGNKIVRIAQGDKAEVPAGAEVVDLGDATLLPGFIDAHVHLSGQSSDNWYGDFFDNMMRFPAEQALYGAYYARITLEAGFTSVRDVGSTDWVALGLRNAIDAGKVPGPRMLVSNYAVGSTGGHADQDPIPPHKLPLAGPLQGVCNGPEECRAAVRYQIKYGANVIKFMPSGGVLSLSDPVDAPELSQDEMNAVIGESHAWGRKVAAHAHGDKAAKMAVAAGVDSIEHGSFIEDDTLRAMKAKNVYLVPTISGIAHVEEKIGTFPPVIAEKGRAAAAHLRQTFRHAVQIGVPIALGTDAGAGAHGSNAREFRYMVENGLTPAQALLAGTANAARLLGTFDRVGTLEAGKLADVVAVPGNPIADITVTERPLFVMKDGVVVRRDAVR
modifications: exemplary polypeptide
- Specific OTA detoxification activities in % compared to the enzyme of SEQ ID NO: 1, pH 6.0 [1]: 7%
- Specific OTA detoxification activities in % compared to the enzyme of SEQ ID NO: 1, pH 7.5 [1]: 3%
- T50 (temperature at which 50% of the initial activity was maintained) [2]: 64.0-65.3 °C

B5: 49 (protein)
chain: MTTRTRILTAFLSLLAANACAADAAPAAPHTVVLRAARMFDGASGKLVDHPQLTIVGNKIVRIAQGDKAEVPAGAEVVDLGDATLLPGFIDAHVHLSGQSSDNWYGDFFDNMMRFPAEQALYGAYYARITLEAGFTSVRDVGSADWVALGLRNAIDAGKVPGPRMLVSNYAVGSTGGHADQDPIPPHKLPLAGPLQGVCNGPEECRAAVRYQIKYGANVIKFMPSGGVLSLSDPVDAPELSQDEMNAVIGESHAWGRKVAAHAHGDKAAKMAVAAGVDSIEHGSFIEDDTLRAMKAKNVYLVPTISAIAHVEEKIGTFPPVIAEKGRAAAAHLRQTFRHAVQIGVPIALGTDAGVGAHGSNAREFRYMVENGLTPAQALLAGTANAARLLGTFDRVGTLEAGKLADVVAVPGNPIADITVTERPLFVMKDGVVVRRDAVR
modifications: exemplary polypeptide
- Specific OTA detoxification activities in % compared to the enzyme of SEQ ID NO: 1, pH 6.0 [1]: 76%
- Specific OTA detoxification activities in % compared to the enzyme of SEQ ID NO: 1, pH 7.5 [1]: 179%
- T50 (temperature at which 50% of the initial activity was maintained) [2]: 68-70 °C

B6: 48 (protein)
chain: MTTRTRILTAFLSLLAANACAADAAPAAPHTVVLRAARMFDGASGKLVDHPQLTIVGNKIVRIAQGDKAEVPAGAEVVDLGDATLLPGFIDAHVHLSGQSSDNWYGDFADNMMRFPAEQALYGAYYARITLEAGFTSVRDVGSTDWVALGLRNAIDAGKVPGPRMLVSNYAVGSTGGHADQDPIPPHKLPLAGPLQGVCNGPEECRAAVRYQIKYGANVIKFMPSGGVLSLSDPVDAPELSQDEMNAVIGESHAWGRKVAAHAHGDKAAKMAVAAGVDSIEHGSFIEDDTLRAMKAKNVYLVPTISAIAHVEEKIGTFPPVIAEKGRAAAAHLRQTFRHAVQIGVPIALGTDAGVGAHGSNAREFRYMVENGLTPAQALLAGTANAARLLGTFDRVGTLEAGKLADVVAVPGNPIADITVTERPLFVMKDGVVVRRDAVR
modifications: exemplary polypeptide
- Specific OTA detoxification activities in % compared to the enzyme of SEQ ID NO: 1, pH 6.0 [1]: 54%
- Specific OTA detoxification activities in % compared to the enzyme of SEQ ID NO: 1, pH 7.5 [1]: 102%
- T50 (temperature at which 50% of the initial activity was maintained) [2]: <63.2 °C

B7: 72 (protein)
chain: MTTRTRILTAFLSLLAANACAADAAPAAPHTVVLRAARMFDGASGKLVDHPQLTIVGNKIVRIAQGDKAEVPAGAEVVDLGDATLLPGFIDAHVHLSGQSSDNWYGDFFDNMMRFPAEQALYGAYYARITLEAGFTSVRDVGSTDWVALGLRNAIDAGKVPGPRMLVSNYAVGSTGGHADQDPIPPHKLPLAGPLQGVCNGPEECRAAVRYQIKYGANVIKFCPSGGVLSLSDPVDAPELSQDEMNAVIGESHAWGRKVAAHAHGDKAAKMAVAAGVDSIEHGSFIEDDTLRAMKAKNVYLVPTISAIAHVEEKIGTFPPVIAEKGRAAAAHLRQTFRHAVQIGVPIALGTDAGVGAHGSNAREFRYMVENGLTPAQALLAGTANAARLLGTFDRVGTLEAGKLADVVAVPGNPIADITVTERPLFVMKDGVVVRRDAVR
modifications: exemplary polypeptide
- Specific OTA detoxification activities in % compared to the enzyme of SEQ ID NO: 1, pH 6.0 [1]: 34%
- Specific OTA detoxification activities in % compared to the enzyme of SEQ ID NO: 1, pH 7.5 [1]: 46%
- T50 (temperature at which 50% of the initial activity was maintained) [2]: 74.4-77.0 °C

B8: 73 (protein)
chain: MTTRTRILTAFLSLLAANACAADAAPAAPHTVVLRAARMFDGASGKLVDHPQLTIVGNKIVRIAQGDKAEVPAGAEVVDLGDATLLPGFIDAHVHLSGQSSDNWYGDFFDNMMRFPAEQALYGAYYARITLEAGFTSVRDVGSTDWVALGLRNAIDAGKVPGPRMLVSNYAVGSTGGHADQDPIPPHKLPLAGPLQGVCNGPEECRAAVRYQIKYGANVIKFAPSGGVLSLSDPVDAPELSQDEMNAVIGESHAWGRKVAAHAHGDKAAKMAVAAGVDSIEHGSFIEDDTLRAMKAKNVYLVPTISAIAHVEEKIGTFPPVIAEKGRAAAAHLRQTFRHAVQIGVPIALGTDAGVGAHGSNAREFRYMVENGLTPAQALLAGTANAARLLGTFDRVGTLEAGKLADVVAVPGNPIADITVTERPLFVMKDGVVVRRDAVR
modifications: exemplary polypeptide
- Specific OTA detoxification activities in % compared to the enzyme of SEQ ID NO: 1, pH 6.0 [1]: 20%
- Specific OTA detoxification activities in % compared to the enzyme of SEQ ID NO: 1, pH 7.5 [1]: 23%
- T50 (temperature at which 50% of the initial activity was maintained) [2]: 74.4-77.0 °C
